Assay results from patent US20150252099A1 (TRELLIS BIOSCIENCE, published 2015).
Residue numbers refer to the chain shown, from its start. Where two headings read alike, the source gives them in different places.

T1: AD-2 peptide NETIYNTTLKYGDV (human cytomegalovirus (CMV))
T1 construct: also called peptide AD-2; conserved peptide designated AD-2
T1 peptide: NETIYNTTLKYGDV

B1: MAB310 (antibody, V domains shown)
VH: QVQLVQSGGGVVQPGTSLRLSCAASGFMFNTYNMHWVRQAPGKGLEWVAVISNDGTYKYSADSLKGRFSISRDNSKNTLYLHMNSLRPDDTAVYYCARDGRSVGGFSGILDPWGQGTLVTVSS
VL: EIVLTQSPATLSLSPGDRATLSCRASQTVGRYLAWYQQKPGQAPRLLIYDASDRATGISARFSGSGSGTDFTLTISSLEPEDFAVYYCQQRSNWPPLTFGGGTKVEIKR
B2: mAb 19B10 (antibody, V domains shown)
VH: QVQLQQSGPGLVKPSQTLSLTCTVSGGSISSGDFCWNWIRQPPGKGLEWIGYICYTGDTYYNPPLNSRVTISVDRSRNQISLRLSSVTAADTAVYYCAREDRRQLHSRPYFYYGLDVWGRGTKVTVSS
VL: EIVMTQSPLSLPVTPGETASISCRSSQSLLHSNGHNYLDWYLQKPGQSPHLLIYLGSIRASGVPDRFSGSGTGTDFTLKISRVEAEDVGVYYCMQALQTPNTFGQGTKLEIRR
notes: Human mAb
B3: mAb 4A2 (antibody, V domains shown)
VH: QVLLEESGGGVVQPGRSLRLSCAGSGFTFNRHGIHWVRQAPGKGLEWVTVISSDGANQQYAESVKGRFIISRDNSKNTVYLEMNSLRNDDTGVYFCARDGRCEGERCYSGVTDFWGQGTLV
VL: EIVLTQSPATLSLSPGERATLSCRASQNIGGYLAWFQQKAGQAPRLLIYDASIRATGIPARFSGSGSGTDFTLTISSLEPEDFAVYYCQQRNSWPPLTFG
notes: Human mAb
B4: MAB313 (antibody, V domains shown)
VH: QVQLVQSGGGVIQPGRSLTLSCAASGFTFSAYSLHWVRQAPGKGLQWVAVISFDGNFKHFADSLRGRFTISRDNSKNRFYLQMNGLRGEDTAVYYCARDGRAVDGFSGILDFWGQGTLVSVSS
VL: EIVMTQSPATLSLSPGERATLSCRASQSVGRYLTWFQQKPGQAPRLLIYDASERATGIPARFSGSGSGTDFTLTISSLEPEDFAVYYCQQRANWPPLTFGGGTKVEIK
B5: MAB338 (antibody, V domains shown)
VH: QVQLVESGGGVVQPGRSLRLSCSGSGFTFSDYNLHWVRQAPGKGLEWVAVISIDGTNKHHADSVKGRFTISRDNSKNTVNLEMSRLKAEDTAVYYCVRDGRSIGGYSGIFDPWGQGTLVTVSS
VL: B4 VL with M4L, G30D, T34A, F36Y, E53Q, T74A, F83V, A92S, V105I
B6: MAB345 (antibody, V domains shown)
VH: QVQLVESGGGVVQPGRSLRLSCAASGFTFSDYNMHWVRQAPGKGLEWVAVISIDGTYKYSADSVAGRFSLSRDNSKNTLYLQMNSLRPDDTAIYYCARDGRSVGGFSGILDPWGQGTLVTVSS
VL: B4 VL with E17D, R31S, T34A, F36Y, I48M, A51S, E53V, A92N
notes: also called ATCC PTA-121705

Key:
[1] = molecular target: T2, CMV gB protein (strain AD169), purified (human cytomegalovirus (CMV), strain …, UniProt P06473 32-906, limits assumed); test: told with the gB binding kinetics (ForteBio biosensor); reference mAb 4A2
T2 construct: also called recombinant gB protein; purified gB protein
T2 sequence (P06473 32-906 limits assumed): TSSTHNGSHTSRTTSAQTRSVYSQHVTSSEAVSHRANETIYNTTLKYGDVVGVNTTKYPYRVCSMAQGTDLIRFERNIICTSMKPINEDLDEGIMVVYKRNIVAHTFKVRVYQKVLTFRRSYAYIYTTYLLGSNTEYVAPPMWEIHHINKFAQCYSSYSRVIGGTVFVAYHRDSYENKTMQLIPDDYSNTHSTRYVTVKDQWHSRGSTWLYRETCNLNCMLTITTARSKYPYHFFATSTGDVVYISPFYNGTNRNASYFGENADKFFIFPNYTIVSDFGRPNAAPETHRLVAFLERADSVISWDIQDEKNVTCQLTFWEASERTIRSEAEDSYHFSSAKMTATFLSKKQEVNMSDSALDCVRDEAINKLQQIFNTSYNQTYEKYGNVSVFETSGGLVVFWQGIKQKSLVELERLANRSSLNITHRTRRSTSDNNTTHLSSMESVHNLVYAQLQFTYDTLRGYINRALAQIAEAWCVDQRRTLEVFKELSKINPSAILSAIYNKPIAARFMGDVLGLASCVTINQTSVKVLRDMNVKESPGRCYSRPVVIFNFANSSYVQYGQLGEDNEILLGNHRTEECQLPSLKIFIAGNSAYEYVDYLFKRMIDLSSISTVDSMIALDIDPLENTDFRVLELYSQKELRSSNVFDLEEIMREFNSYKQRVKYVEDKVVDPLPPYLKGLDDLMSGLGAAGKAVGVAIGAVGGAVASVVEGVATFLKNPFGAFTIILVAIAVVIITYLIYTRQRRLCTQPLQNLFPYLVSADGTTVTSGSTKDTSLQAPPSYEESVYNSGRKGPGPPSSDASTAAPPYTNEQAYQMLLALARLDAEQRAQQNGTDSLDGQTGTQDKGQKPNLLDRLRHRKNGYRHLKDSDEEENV
Method: (§1) In this method, the carboxylic acid groups on Amine Reactive Biosensors were activated with EDC/NHS. […] The gB protein was incubated with the Ab-coated probe and rates of association to and dissociation from the Ab-coated probe were determined by the FortéBio® instrument.

[2] = molecular target: T2, CMV gB protein (strain AD169), purified; test: ForteBio biosensor, antibody coupled to the probe, gB in solution
Method: as §1

[3] = molecular target: T2, CMV gB protein (strain AD169), purified; test: as above; remark: listed apart in the source
Method: as §1

[4] = molecular target: T2, CMV gB protein (strain AD169), purified; test: cell-based or functional assay
[5] = molecular target: T1, AD-2 peptide NETIYNTTLKYGDV; test: ELISA binding assay on the AD-2 peptide

Binder	fold higher potency than mAb 4A2 [1] [fold]	Kd [2] [nM]	koff [2] [s⁻¹]	kon [2] [M⁻¹ s⁻¹]	Kd [3] [nM]	IC50 (µg/mL), neutralizing potency [4] [µg/mL]	binding result [5]
B1	~10	0.8	1.2e-05	16000	–	–	–
B2	–	–	–	–	0.697	0.04	no binding
B3	–	–	–	–	0.168	0.02	–
B4	~10	0.7	1.2e-05	17000	–	–	–
B5	~10	–	–	–	–	–	–
B6	–	2.3	3.3e-05	14000	–	–	–
